Assay results from publication doi:10.1101/2025.03.16.643542 (bioRxiv, 2025).
Each block holds one binder with its values, some of them ahead of it.

Target: epidermal growth factor receptor (EGFR) on EGFR^hi A431 cells (Homo sapiens, A431 cells, UniProt P00533)
Experiment: flow cytometry on cells

EC50: 4.7 nM
B1: nanobody 5B12 (VHH)
VHH: QVQLQESGGGLVQTGDSLRLSCAASGGTLTSYNMGWFRQAPGKDREFVAGISWSGGTGTYYADSVKGRFTISTDNAKNTVYLQMDSLKPDDTAVYYCAVRRRAYSVYTRPGLYDYWGQGTQVTVSS

EC50: 76.9 nM
B2: nanobody 5B1 (VHH)
VHH: QVQLQESGGGLVQAGDSLRLSCAASGRTFSTYTMGWFRQAPGKEREFVAGIGYSDDNTYYTDSVKGRFTVSRGSAKNTVYLQMNSLKPEDTAVYYCAARVGDVVFTIADNYAYWGQGTQVTVSS
